Laboratory results from US6562788B1, “Topoisomerase II inhibitor” (Laboratoire L. Lafon, priority 1998, dated 2003).

Key:
topoisomerase II = details: prior art, literature; cited from earlier work
[1] = target: T1, topoisomerase II of yeast (Saccharomyces cerevisiae, UniProt P06786); assay: relaxation of supercoiled plasmids, topoisomerase II activity assay; assay type: biochemical; details: peptide concentration of 0.5 μM
T1 sequence (P06786 1-1428): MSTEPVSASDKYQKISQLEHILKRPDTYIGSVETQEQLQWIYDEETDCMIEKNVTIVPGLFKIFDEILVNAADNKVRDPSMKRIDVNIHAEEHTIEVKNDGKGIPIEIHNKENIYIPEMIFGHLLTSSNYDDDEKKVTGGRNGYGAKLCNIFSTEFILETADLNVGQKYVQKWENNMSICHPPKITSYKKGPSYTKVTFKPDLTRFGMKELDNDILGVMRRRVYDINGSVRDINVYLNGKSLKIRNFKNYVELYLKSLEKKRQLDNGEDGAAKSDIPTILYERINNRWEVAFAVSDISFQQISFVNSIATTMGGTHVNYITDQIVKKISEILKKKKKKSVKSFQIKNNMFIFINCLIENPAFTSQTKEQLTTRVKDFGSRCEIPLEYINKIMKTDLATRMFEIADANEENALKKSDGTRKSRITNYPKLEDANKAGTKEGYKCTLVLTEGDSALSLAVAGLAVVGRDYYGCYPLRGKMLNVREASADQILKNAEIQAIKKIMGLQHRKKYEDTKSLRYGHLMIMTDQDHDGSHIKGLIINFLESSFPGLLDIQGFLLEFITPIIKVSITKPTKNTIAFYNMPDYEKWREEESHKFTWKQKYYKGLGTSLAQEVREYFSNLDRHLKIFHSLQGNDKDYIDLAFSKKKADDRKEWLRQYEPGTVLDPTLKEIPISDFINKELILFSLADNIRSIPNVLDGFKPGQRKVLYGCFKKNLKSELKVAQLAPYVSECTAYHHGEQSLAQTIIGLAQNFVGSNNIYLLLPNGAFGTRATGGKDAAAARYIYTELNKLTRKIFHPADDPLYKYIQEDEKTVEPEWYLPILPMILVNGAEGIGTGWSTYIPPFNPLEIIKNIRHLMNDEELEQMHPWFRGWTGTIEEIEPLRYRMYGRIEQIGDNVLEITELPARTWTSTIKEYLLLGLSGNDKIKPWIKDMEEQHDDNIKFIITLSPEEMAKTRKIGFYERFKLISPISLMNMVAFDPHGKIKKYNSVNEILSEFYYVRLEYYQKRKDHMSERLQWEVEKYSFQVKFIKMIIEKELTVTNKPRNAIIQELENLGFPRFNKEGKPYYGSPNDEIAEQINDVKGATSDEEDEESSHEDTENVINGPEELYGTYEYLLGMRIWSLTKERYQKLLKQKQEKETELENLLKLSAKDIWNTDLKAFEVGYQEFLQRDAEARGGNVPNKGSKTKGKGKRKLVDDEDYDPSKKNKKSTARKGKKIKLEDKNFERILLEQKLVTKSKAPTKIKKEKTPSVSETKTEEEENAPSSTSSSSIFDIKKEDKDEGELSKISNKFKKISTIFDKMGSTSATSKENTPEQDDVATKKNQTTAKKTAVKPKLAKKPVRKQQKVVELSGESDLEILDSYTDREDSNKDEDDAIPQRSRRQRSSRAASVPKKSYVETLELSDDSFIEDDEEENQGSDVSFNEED
Text: (§1) Two enzymatic assays make it possible to estimate the effect of the pentides on topoisomerase II activity: relaxation of supercoiled plasmids and decatenation of kinetoplast DNA (Wang, J. C., An. Rev. Biochem., 54: 665-697, 1985; Maxwell, A., Advances in Protein Chemistry, 38: 69-107, 1986; Liu, L. F., Cell, 19: 697-707, 1980).

[2] = target: T2, human topoisomerase II alpha (Homo sapiens, UniProt P11388); assay: as above; assay type: biochemical; details: peptide concentration of 0.5 μM
Text: as §1

[3] = target: T1, topoisomerase II of yeast; assay: decatenation of kinetoplast DNA, topoisomerase II activity assay; assay type: biochemical; details: peptide concentration of 0.5 μM
Text: as §1

[4] = target: T2, human topoisomerase II alpha; assay: as above; assay type: biochemical; details: peptide concentration of 0.5 μM
Text: as §1

T2 sequence (P11388 whole entry): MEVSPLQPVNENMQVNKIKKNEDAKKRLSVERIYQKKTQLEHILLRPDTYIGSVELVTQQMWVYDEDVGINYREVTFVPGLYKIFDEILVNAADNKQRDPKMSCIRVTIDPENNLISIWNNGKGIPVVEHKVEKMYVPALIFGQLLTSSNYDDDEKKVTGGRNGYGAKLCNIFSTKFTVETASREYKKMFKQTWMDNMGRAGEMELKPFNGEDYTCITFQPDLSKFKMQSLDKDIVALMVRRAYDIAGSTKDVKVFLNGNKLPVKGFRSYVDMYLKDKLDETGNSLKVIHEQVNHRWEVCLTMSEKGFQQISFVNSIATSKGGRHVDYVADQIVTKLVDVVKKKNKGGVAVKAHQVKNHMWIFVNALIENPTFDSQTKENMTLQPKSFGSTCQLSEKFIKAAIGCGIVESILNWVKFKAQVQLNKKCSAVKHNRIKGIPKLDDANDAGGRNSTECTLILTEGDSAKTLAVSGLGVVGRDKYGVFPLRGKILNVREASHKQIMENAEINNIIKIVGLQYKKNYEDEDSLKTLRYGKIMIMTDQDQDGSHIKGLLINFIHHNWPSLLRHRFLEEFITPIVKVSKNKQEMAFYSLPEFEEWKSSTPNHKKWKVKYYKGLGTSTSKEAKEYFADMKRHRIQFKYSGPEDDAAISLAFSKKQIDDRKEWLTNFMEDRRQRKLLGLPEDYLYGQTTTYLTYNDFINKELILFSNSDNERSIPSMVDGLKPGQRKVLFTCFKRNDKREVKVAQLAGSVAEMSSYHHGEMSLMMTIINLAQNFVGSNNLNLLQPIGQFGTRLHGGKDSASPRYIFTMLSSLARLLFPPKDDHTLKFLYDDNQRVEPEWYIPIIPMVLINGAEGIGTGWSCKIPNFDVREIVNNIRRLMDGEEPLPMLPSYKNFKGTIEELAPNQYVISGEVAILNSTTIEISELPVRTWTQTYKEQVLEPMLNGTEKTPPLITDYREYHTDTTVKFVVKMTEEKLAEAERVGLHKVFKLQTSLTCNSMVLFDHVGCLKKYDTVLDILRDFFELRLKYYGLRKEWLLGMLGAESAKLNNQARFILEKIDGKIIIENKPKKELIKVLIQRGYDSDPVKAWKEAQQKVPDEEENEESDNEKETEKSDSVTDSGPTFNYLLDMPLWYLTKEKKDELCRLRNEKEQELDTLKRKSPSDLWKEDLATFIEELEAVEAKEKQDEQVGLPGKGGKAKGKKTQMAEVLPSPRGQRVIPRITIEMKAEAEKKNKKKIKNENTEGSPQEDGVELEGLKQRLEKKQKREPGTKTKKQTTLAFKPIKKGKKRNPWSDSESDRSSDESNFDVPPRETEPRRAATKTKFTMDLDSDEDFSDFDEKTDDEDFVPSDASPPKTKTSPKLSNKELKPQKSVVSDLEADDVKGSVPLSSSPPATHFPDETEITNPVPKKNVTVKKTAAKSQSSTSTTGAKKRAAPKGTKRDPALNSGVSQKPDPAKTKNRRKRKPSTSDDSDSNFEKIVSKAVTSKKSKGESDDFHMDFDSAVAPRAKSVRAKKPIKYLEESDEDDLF

| Substance | inhibitory activity for topoisomerase II (topoisomerase II) | inhibition of topoisomerase II activity (relaxation of supercoiled plasmids) [1] | inhibition of topoisomerase II activity (relaxation of supercoiled plasmids) [2] | inhibition of topoisomerase II activity (decatenation of kinetoplast DNA) [3] | inhibition of topoisomerase II activity (decatenation of kinetoplast DNA) [4] |
| --- | --- | --- | --- | --- | --- |
| sequence 1013 to 1041 of human topoisomerase II alpha: topoisomerase II fragment, corresponding to sequence 1013 to 1041 of human topoisomerase II alpha, described by Frére Gallois et al. | inhibitory activity |  |  |  |  |
| Thr-Gin-Leu-Asp-Ile-Leu-Arg-Asp-Leu-Phe-Glu-Leu-Arg -Leu-Lys-Tyr-Tyr-Gly-Leu-Arg-Lys-Glu-Phe-Leu-Leu-Gin-Met -Leu-Gly (TQLDILRDLFELRLKYYGLRKEFLLQMLG) [example 1] |  | totally inhibits | totally inhibits | totally inhibits | totally inhibits |
